Experimental data taken from article PMC8994484.

Biological target: ofCP (Olindias formosa)
Experiment: SEC

For ofCP (natural protein), which stoichiometry N is on record?
The stoichiometry N was 2.
